experiment: soluble on expression in E. coli; label from the status in PepcDB or PDB records

Soluble on expression in E. coli, not soluble:
MGSDKIHHHHHHMALRLRKENDLWVQTFKAAGQSHLHRVEEEVFLGKCDQEPDLNLELYKDNKAVTDLITQALGSEVEKLSLQFETDVQRTYHVFEADDTAIEVCLDDGAVKTATAQSKICEVEFELKQGAVKTLIQFAQQWINRYELWLDVRSKAERGNLLALGQAASPAVHAKNLNLDKNISAEQALKKIVENCLGQFLPNMAAIADGVAEAEHIHQARVSLRRLRSALKHFSAWSDELNPVWEEQIAELFRQLGDTRDEDAIRTEILPMIVQHGSPELLLPISEQPLKDLATLFKSADTIKLILALLAFAYSEEDNQNGKGKLKKQIGKSLDKLHHQVVSNADHFTELEVTEQHRTRKKAKQLRYCIEFISSLYPRKNIQQFLKQLQPVQNTLGLYNDLFIAEDLFNKAIEHDPHFWFALGWVKAKQPYLQNQSAEALQKFKQAKTFW, MGSDKIHHHHHHMALSERLSRFLARKGITYQPLETEPVANLDAAVLASGKPQHDFIKATLLIDINGVVMVVHRFDSTLDMDAVHQFTGRRLQPLTARQTSRLFGDCDAGFVPPIGAAWELPVLVDEDVVTAESVIFSGGTDHSLVEMDGRAFRLAQAGARQGHLVIRGQGGEDREALTLEDVADKLQKLYRLPPMPALALRILRLTANTEATAKELAELIEFDPSMTAQIMRYARSALFNYPGQINSVQEAVTRVLGFDRVAHIALGIASVRAFDVPRGGMLGMDNFWRHSLYCAFLCQNLAAYSGRDKGLAYLCGLLHNFGLLLVGHLFPSEFEELNALREINPEASMHSLEQEVFGHSERQDILAVGHGAIGGILHRLWQLPEAVIKAAGMHQHIGYHGEHEEYVQMVQLANAILKERGIGDELNPDDLPALVESLGLRADVLERVQSDMDQVASDLDVLASSLAS, MGSDKIHHHHHHMAQHVIEMREITKKFDDFVANDHINLDLRKGEIHALLGENGAGKSTLMNMLAGLLEPTSGSIKINGSAVTIDSPSKSAQLGIGMVHQHFMLVEAFTVTENIILGNEVVKNGILDLKKAGQEIKALSEKYGLAVDPNAKIADISVGAQQRVEILKTLYRGADILIFDEPTAVLTPSEIQELMTIMKSLVKEGKSIILITHKLDEIRSVADRVTVIRRGKSIETVEVSGTTSQDLAEMMVGRSVSFTIEKTPTKPKETILSIKDLVVNENRGIPAIKGLSLEVKAGEIIGIAGIDGNGQSELVQAITGLRKIKSGHLTIKGQDVTKLSTRKITELSVGHVPEDRHRDGLILELTMAENLALQTYYKAPLSHNGVLNYSKINEHGRHLMQEFDVRGANELIPAKGFSGGNQQKAIIAREVDRDPDLLIVSQPTRGLDVGAIEYIHKRLIAERDEGKAVLLVSFELDEILNLSDRIAVIHDGQIQGIVTPETTNKQELGILMAGGSIEREEINV, MGSDKIHHHHHHMAQPGKILKEQKYDRQLRLWGDHGQEALESAHVCLINATATGTEILKNLVLPGIGSFTIIDGNLVSGEDAGNNFFLQKSSIGKNRAQAAMEFLQELNSDVSGSFVEESPENLLDNDPSFFCRFTIVVATQLLESTLLRLADVLWNSQIPLLICRTYGLVGYMRIIIKEHPVIESHPDNALEDLRLDKPFPELREHLQSYDLDHMEKKDHSHTPWIVIIAKYLAQWYNETNGRIPKSYKEKEDFRDLIRQGILKNENGAPEDEENFEEAIKNVNTALNTTQIPSSIEDIFNDDRCINITKQTPTFWILARALKEFVAKEGQGNLPVRGTIPDMIADSNKYIKLQNVYREKAKKDAAAVGNHVAKLLQSVGQAPESISEKELKLLCSNSAFLRVVRCRSLAEEYGLDTVNKDEIISSMDNPDNEIVLYLMLRAVDRFHKQHGRYPGVSNYQVEEDIGKLKSCLTGFLQEYGLSVMVKDDYVHEFCRYGAAEPHTIAAFLGGAAAQEVIKIITKQFVIFNNTYIYSGMSQTSATFQL, MGSDKIHHHHHHMARHGKGPKTNKKKLAPEKERFIQCCADITLELTDSLTSGTTREINLNGLITKYSKKYKLKQQPRLTDIINSIPDQYKKYLLPKLKAKPVRTASGIAVVAVMCKPHRCPHIAYTGNICVYCPGGPDSDFEYSTQSYTGYEPTSMRAIRARYDPYEQARGRVEQLKQLGHSIDKVEYVLMGGTFMSLPKEYREDFIVKLHNALSGFNGNDIDEAILYSQQSLTKCVGITIETRPDYCTQTHLDDMLKYGCTRLEIGVQSLYEDVARDTNRGHTVRSVCETFAVSKDAGYKVVSHMMPDLPNVGMERDIEQFKEYFENPDFRTDGLKIYPTLVIRGTGLYELWKTGRYKSYSANALVDLVARILALVPPWTRIYRVQRDIPMPLVTSGVDNGNLRELALARMKDLGTTCRDVRTREVGIQEVHHKVQPDQVELIRRDYYANGGWETFLSYEDPKKDILIGLLRLRKASKKYTYRKEFTSQRTSIVRELHVYGSVVPLHSRDPRKFQHQGFGTLLMEEAERIAKEEHGSEKISVISGVGVRNYYGKLGYELDGPYMSKRI, MGSDKIHHHHHHMARLLSELQPSEFDITVVAIADTPPDVVSMLPDHVEVKHLKMTRRTALLQLGEISKIVKSTDILVCSLFHATAIGVPLGLLLQVPKLLVWQHSTSYSNQIRSAYYRLAYRAADRVLADSDAVMEMLVDSVGVPDQKISTLPIAGIDVKEYQPSKTHPSHENITVSTVGRLANVKGYDDLIRCARDIGDDLQFQIAGEGEERERLESKTPDNVNFQGMVPNEQIPQFLNNSDIYFQPSKYEGLCMAVIEAMACGLPVVASDVGGITESVVPGETGFLCRPRDIDCFSERLQQLSENPALRKQMGTAGRKRVISEYSQKALARQFRKAIDQTETV, MGSDKIHHHHHHMARRYVVVGGGPAGVVCAETLRRQDAEGSITLVCAEPGPPYSRMAIPYAMSGKIDESGTWLRKDWGHYEALGIALLHDRVTGVDSGARQVRLESGAPLSYDALLIATGSSPARPRVPGLDLPGVHSCWTLEDLRRIDPLLKPGRRVLLLGAGFVSCIILQSLVQRGAKVTVSCGSSGRMVRSMMDETAGGMIMRWCRAKGVEVLTAGRPTAIEQRDSGLLVTLDSGKSAEADLVIVGTGVKTNTAFLEGSGIAIEDGIIVDQYLGTNVPGIWAAGDVAQGFNCCTGLTEVHAIQPTAVEHGRVAAMNMSGHPTPFGGSLSMNTLETLGLISCSFGQWMGAEGGKQVRMVDEEHFRYLRLEFQGDRLVGANTVGMTNEIGIIRGLIQTKLRLGEWLERLTQDPSRLAEAYVACAQGV, MGSDKIHHHHHHMASESNQVIQRLFQRFFRDELAGLSPADRAAFESEFEGRYGELLDRSSSATTTSFADLVGFGDGPIKPFDSLQMPLLRNDFDESIIPPQLQASAELYYIYQMDRMKLFQVVDVLRRLFQNGQIRIQRGPGARGLYILEKWRPIRYKRRDRLIAYRRVFNYGRAPVPAGAIVNRSFHFQLVAFMNAMSQYFQDLTIGQVIRGSSTINDRPFAALATVQRVGTDLRYHLDRSSYGNILALTRETGQYVQQIFELFDAPDIKKSFDANTKWDVIEAVANRHLGGATEMSERAKMADAGRRILQYIAENDFRTTITPAEFDADAKKMGAQADAWLAAYRLTREGRRFPGLDGDRVHWSYGLNRNTASRIAA, MGSDKIHHHHHHMASFIASDQDVKNFLTAPSMNDQEGIGFAYATDEAVLKALIPAPLKLMAPVVCGYVVHMGKPTFSAPYLEESLFALVSYKDKMMGAYPINLLLHGPGAESGVIAGREGAGIPKKLADDIELRRNDNSATATVERHGKTLLNVSWTAGELNDPSIMKQFAGQLALGKEAEMNSFFYKYDIDQHEDGTNHFSNVQLVATQLRSLADQVEPGNLSIQLESTDDDPFGELKVLKPLGAAWFHFDTSVMFNTLKLDEVDAATTMPKLLTGRYDRSFFNPKAATYII, MGSDKIHHHHHHMASLTANIQTQEERKRSLPAQLVVSLVIAMSLWSKDSMRDVLKNLIDGLSEAWLKVGKYWRVACKSAITQARQRLGARVMCKLFHQLVKPMATQETLGAFLQELRIVVIDGSCFDVPDSDENARVFGRPGSRPGTKAAFPKVRLVILVEAGTHIIFDALMWPYRIGERVRALRLLRSVTPGMLLMWDRGLHSYAMVQATVTKGCDYLGRIPANIKFIAEKPLEDGSYLSWIYPSGKLRKKASQPILVRIIEYTIEHPDNPTEQLTYRLITSLLNIEKFPAELLAREYHQRWEVENTIDELKIHLLGRKTHVRSQKPREVVQEVYAWLLGHWTVRLLMFQAATSAGVAPLRLSFTGTLRVIRRAVPKFQRLNSQDLPLFLSG

— the DeepSol protein solubility set
